Molecular target: DDA1 (human, UniProt Q9BW61 1-102)
Experiment: crystal structure

B1: DDB1(ΔBPB) (natural protein)
chain: MSYNYVVTAQKPTAVNGCVTGHFTSAEDLNLLIAKNTRLEIYVVTAEGLRPVKEVGMYGKIAVMELFRPKGESKDLLFILTAKYNACILEYKQSGESIDIITRAHGNVQDRIGRPSETGIIGIIDPECRMIGLRLYDGLFKVIPLDRDNKELKAFNIRLEELHVIDVKFLYGCQAPTICFVYQDPQGRHVKTYEVSLREKEFNKGPWKQENVEAEASMVIAVPEPFGGAIIIGQESITYHNGDKYLAIAPPIIKQSTIVCHNRVDPNGSRYLLGDMEGRLFMLLLEKEEQMDGTVTLKDLRVELLGETSIAECLTYLDNGVVFVGSRLGDSQLVKLNVDSNEQGSYVVAMETFTNLGPIVDMCVVDLERQGQGQLVTCSGAFKEGSLRIIRNGIGIHGTIDEIQKLHIRTVPLYESPRKICYQEVSQCFGVLSSRIEVQDTSGGTTALRPSASTQALSSSVSSSKLFSSSTAPHETSFGEEVEVHNLLIIDQHTFEVLHAHQFLQNEYALSLVSCKLGKDPNTYFIVGTAMVYPEEAEPKQGRIVVFQYSDGKLQTVAEKEVKGAVYSMVEFNGKLLASINSTVRLYEWTTEKELRTECNHYNNIMALYLKTKGDFILVGDLMRSVLLLAYKPMEGNFEEIARDFNPNWMSAVEILDDDNFLGAENAFNLFVCQKDSAATTDEERQHLQEVGLFHLGEFVNVFCHGSLVMQNLGETSTPTQGSVLFGTVNGMIGLVTSLSESWYNLLLDMQNRLNKVIKSVGKIEHSFWRSFHTERKTEPATGFIDGDLIESFLDISRPKMQEVVANLQYDDGSGMKREATADDLIKVVEELTRIH
binding result: binds
